Bounds are passed on as bounds.

What is called Kd is a measure of binding affinity in units of concentration.

In experiment [1] the target is rat NTNRα-IgG fusion protein (soluble rNTNRα) (rat). Put plainly: binding experiments with biotinylated ligand (format not described); 'and vice versa'.
In experiment [2] the target is T1, recombinant soluble rat GDNFRα (rat) (UniProt Q62997).
T1 sequence (looked up): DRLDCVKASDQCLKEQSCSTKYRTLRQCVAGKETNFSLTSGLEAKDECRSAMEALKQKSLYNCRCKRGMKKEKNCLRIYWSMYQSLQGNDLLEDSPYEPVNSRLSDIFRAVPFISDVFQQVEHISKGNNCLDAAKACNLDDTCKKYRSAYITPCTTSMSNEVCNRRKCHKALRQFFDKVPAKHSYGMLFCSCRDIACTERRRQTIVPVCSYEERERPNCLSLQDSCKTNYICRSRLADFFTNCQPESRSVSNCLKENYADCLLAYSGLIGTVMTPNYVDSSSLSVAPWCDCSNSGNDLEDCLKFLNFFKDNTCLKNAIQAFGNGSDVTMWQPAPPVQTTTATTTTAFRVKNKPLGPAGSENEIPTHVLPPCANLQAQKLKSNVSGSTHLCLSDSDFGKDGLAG
The experiment can be described thus: displacement of labelled rGDNF from soluble GDNFRα by unlabeled NTN (10 nm).

For experiment [3], the target named is T2, rat NTNRα, endogenous, on embryonic rat spinal motoneurons (rat).
T2 sequence (chain, GPI-linked): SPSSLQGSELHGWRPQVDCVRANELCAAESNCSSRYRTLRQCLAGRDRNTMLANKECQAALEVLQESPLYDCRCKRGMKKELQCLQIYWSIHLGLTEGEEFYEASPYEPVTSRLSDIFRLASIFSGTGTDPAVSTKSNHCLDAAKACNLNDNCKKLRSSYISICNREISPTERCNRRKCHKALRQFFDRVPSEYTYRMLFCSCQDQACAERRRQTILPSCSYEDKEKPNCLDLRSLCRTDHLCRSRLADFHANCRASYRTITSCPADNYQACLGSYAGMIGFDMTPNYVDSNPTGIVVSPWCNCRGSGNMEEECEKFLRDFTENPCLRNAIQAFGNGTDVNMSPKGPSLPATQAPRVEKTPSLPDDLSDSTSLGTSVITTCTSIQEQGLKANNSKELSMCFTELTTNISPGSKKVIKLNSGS
Put plainly: cell-based or functional assay.

Experiment [4] addresses T1, recombinant soluble rat GDNFRα (rat). The experiment can be described thus: binding experiments with biotinylated ligand (format not described).

B1: GDNF, species not stated (ligand, UniProt P39905 78-211, looked up, species assumed)
Glial cell line-derived neurotrophic factor: SPDKQMAVLPRRERNRQAAAANPENSRGKGRRGQRGKNRGCVLTAIHLNVTDLGLGYETKEELIFRYCSGSCDAAETTYDKILKNLSRNRRLVSDKVGQACCRPIAFDDDLSFLDDNLVYHILRKHSAKRCGCI
In the case of B1, the Kd in experiment [1] is more than 1000 µM.

B2: Neurturin (NTN), species not stated (ligand, UniProt Q99748 96-197, looked up, species assumed)
Neurturin: ARLGARPCGLRELEVRVSELGLGYASDETVLFRYCAGACEAAARVYDLGLRRLRQRRRLRRERVRAQPCCRPTAYEDEVSFLDAHSRYHTVHELSARECACV
Turning to B2, the Kd in experiment [2] is more than 0.001 µM; in experiment [4] it was more than 1000 µM. Further, the decrease in survival response of embryonic rat spinal motoneurons to NTN after PIPLC treatment in experiment [3] fell in the range of 50 to 90%.

Source of the values: patent US6342348.
